In publication PMC2756588:

The binders below were run against T1, Abp1, P15891 (assay: SPOT array). Conditions: median of control spots 935.
T1 sequence (P15891 535-592, looked up): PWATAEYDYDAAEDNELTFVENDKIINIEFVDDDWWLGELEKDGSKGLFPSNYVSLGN

| Binder | SPOT intensity |
| --- | --- |
| PPLPRAPPVPPATFE | 27 |
| VNIPSPSSSPPPIPK | 1 |
| PPPPPPPPPPLPQSL | 0 |

What follows are binders tested against T2, Bbc1, P47068 (assay: SPOT array). Conditions: median of control spots 796.
T2 sequence (P47068 1-78, looked up): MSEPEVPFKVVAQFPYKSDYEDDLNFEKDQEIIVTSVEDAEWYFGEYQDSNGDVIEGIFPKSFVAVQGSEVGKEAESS

| Binder | SPOT intensity |
| --- | --- |
| PPLPRAPPVPPATFE | 3 |
| VNIPSPSSSPPPIPK | 0 |
| PPPPPPPPPPLPQSL | 0 |

The binders below were run against Bem1-1, P29366 (assay: SPOT array). Conditions: median of control spots 4282.
Sequence of Bem1-1, P29366 (P29366 55-141): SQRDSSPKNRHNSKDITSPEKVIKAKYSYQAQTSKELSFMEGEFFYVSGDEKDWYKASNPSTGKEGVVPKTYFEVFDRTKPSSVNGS

| Binder | SPOT intensity |
| --- | --- |
| PPLPRAPPVPPATFE | 2 |
| VNIPSPSSSPPPIPK | 0 |
| PPPPPPPPPPLPQSL | 0 |

These binders were tested against Bem1-2, P29366 (assay: SPOT array). Conditions: median of control spots 4347.
Sequence of Bem1-2, P29366 (P29366 139-227): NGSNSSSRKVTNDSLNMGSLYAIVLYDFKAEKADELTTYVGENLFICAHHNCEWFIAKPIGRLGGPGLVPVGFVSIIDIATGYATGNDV

| Binder | SPOT intensity |
| --- | --- |
| PPLPRAPPVPPATFE | 59 |
| VNIPSPSSSPPPIPK | 49 |
| PPPPPPPPPPLPQSL | 1 |

What follows are binders tested against T3, Boi1, P38041 (assay: SPOT array). Conditions: median of control spots 1162.
T3 sequence (P38041 1-86, looked up): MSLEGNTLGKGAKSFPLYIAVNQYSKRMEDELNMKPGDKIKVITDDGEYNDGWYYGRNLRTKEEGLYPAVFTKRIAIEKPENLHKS

| Binder | SPOT intensity |
| --- | --- |
| PPLPRAPPVPPATFE | 1 |
| VNIPSPSSSPPPIPK | 0 |
| PPPPPPPPPPLPQSL | 0 |

These binders were tested against T4, Boi2, P39969 (assay: SPOT array). Conditions: median of control spots 1161.
T4 sequence (P39969 32-116, looked up): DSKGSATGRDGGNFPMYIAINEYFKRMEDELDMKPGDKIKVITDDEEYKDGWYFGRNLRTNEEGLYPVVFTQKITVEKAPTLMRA

| Binder | SPOT intensity |
| --- | --- |
| PPLPRAPPVPPATFE | 0 |
| VNIPSPSSSPPPIPK | 0 |
| PPPPPPPPPPLPQSL | 0 |

Each binder was assayed against T5, Bud14, P27637 (assay: SPOT array). Conditions: median of control spots 956.
T5 sequence (P27637 247-328, looked up): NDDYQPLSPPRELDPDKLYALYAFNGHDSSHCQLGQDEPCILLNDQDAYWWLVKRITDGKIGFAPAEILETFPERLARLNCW

| Binder | SPOT intensity |
| --- | --- |
| PPLPRAPPVPPATFE | 0 |
| VNIPSPSSSPPPIPK | 1 |
| PPPPPPPPPPLPQSL | 0 |

The binders below were run against T6, Bzz1-1, P38822 (assay: SPOT array). Conditions: median of control spots 4446.
T6 sequence (P38822 478-572, looked up): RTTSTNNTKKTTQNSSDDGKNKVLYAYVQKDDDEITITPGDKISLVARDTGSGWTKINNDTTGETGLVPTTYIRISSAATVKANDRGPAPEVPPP

| Binder | SPOT intensity |
| --- | --- |
| PPLPRAPPVPPATFE | 2 |
| VNIPSPSSSPPPIPK | 1 |
| PPPPPPPPPPLPQSL | 5 |

These binders were tested against T7, Bzz1-2, P38822 (assay: SPOT array). Conditions: median of control spots 4538.
T7 sequence (P38822 568-633, looked up): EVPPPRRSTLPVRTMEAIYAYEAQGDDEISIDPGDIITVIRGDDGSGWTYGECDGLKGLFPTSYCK

| Binder | SPOT intensity |
| --- | --- |
| PPLPRAPPVPPATFE | 4 |
| VNIPSPSSSPPPIPK | 0 |
| PPPPPPPPPPLPQSL | 2 |

What follows are binders tested against T8, Cdc25, P04821 (assay: SPOT array). Conditions: median of control spots 969.
T8 sequence (P04821 50-136, looked up): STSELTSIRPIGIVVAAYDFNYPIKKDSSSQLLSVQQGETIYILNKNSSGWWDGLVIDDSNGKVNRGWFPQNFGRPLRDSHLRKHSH

| Binder | SPOT intensity |
| --- | --- |
| PPLPRAPPVPPATFE | 1 |
| VNIPSPSSSPPPIPK | 0 |
| PPPPPPPPPPLPQSL | 0 |

The binders below were run against T9, Cyk3, Q07533 (assay: SPOT array). Conditions: median of control spots 1451.
T9 sequence (Q07533 1-83, looked up): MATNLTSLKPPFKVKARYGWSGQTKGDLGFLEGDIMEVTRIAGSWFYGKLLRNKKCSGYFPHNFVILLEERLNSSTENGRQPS

| Binder | SPOT intensity |
| --- | --- |
| PPLPRAPPVPPATFE | 0 |
| VNIPSPSSSPPPIPK | 0 |
| PPPPPPPPPPLPQSL | 1 |

The binders below were run against T10, Fus1, P11710 (assay: SPOT array). Conditions: median of control spots 1200.
T10 sequence (P11710 432-512, looked up): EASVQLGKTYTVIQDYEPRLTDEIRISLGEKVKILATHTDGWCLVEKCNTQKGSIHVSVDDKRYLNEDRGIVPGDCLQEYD

| Binder | SPOT intensity |
| --- | --- |
| PPLPRAPPVPPATFE | 0 |
| VNIPSPSSSPPPIPK | 0 |
| PPPPPPPPPPLPQSL | 0 |

These binders were tested against GST (assay: SPOT array). Conditions: median of control spots 978.

| Binder | SPOT intensity |
| --- | --- |
| PPLPRAPPVPPATFE | 0 |
| VNIPSPSSSPPPIPK | 0 |
| PPPPPPPPPPLPQSL | 1 |

The binders below were run against T11, Hof1, Q05080 (assay: SPOT array). Conditions: median of control spots 4086.
T11 sequence (Q05080 590-669, looked up): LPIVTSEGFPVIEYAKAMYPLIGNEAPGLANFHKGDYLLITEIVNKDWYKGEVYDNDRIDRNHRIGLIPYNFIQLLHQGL

| Binder | SPOT intensity |
| --- | --- |
| PPLPRAPPVPPATFE | 183 |
| VNIPSPSSSPPPIPK | 0 |
| PPPPPPPPPPLPQSL | 5 |

The binders below were run against T12, Hse1, P38753 (assay: SPOT array). Conditions: median of control spots 1727.
T12 sequence (P38753 208-285, looked up): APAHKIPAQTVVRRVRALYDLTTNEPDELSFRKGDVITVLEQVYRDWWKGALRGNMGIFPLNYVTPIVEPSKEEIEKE

| Binder | SPOT intensity |
| --- | --- |
| PPLPRAPPVPPATFE | 0 |
| VNIPSPSSSPPPIPK | 8 |
| PPPPPPPPPPLPQSL | 0 |

Each binder was assayed against T13, Lsb1, P53281 (assay: SPOT array). Conditions: median of control spots 388.
T13 sequence (P53281 45-122, looked up): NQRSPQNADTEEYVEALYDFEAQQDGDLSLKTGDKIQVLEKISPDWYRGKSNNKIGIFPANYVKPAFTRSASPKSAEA

| Binder | SPOT intensity |
| --- | --- |
| PPLPRAPPVPPATFE | 7 |
| VNIPSPSSSPPPIPK | 0 |
| PPPPPPPPPPLPQSL | 0 |

What follows are binders tested against T14, Lsb3, P43603 (assay: SPOT array). Conditions: median of control spots 406.
T14 sequence (P43603 385-451, looked up): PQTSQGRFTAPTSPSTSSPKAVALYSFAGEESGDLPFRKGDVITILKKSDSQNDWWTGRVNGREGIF

| Binder | SPOT intensity |
| --- | --- |
| PPLPRAPPVPPATFE | 0 |
| VNIPSPSSSPPPIPK | 0 |
| PPPPPPPPPPLPQSL | 0 |

The binders below were run against T15, Lsb4, P32793 (assay: SPOT array). Conditions: median of control spots 397.
T15 sequence (P32793 402-468, looked up): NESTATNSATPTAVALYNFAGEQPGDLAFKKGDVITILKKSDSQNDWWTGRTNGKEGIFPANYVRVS

| Binder | SPOT intensity |
| --- | --- |
| PPLPRAPPVPPATFE | 0 |
| VNIPSPSSSPPPIPK | 0 |
| PPPPPPPPPPLPQSL | 0 |

Each binder was assayed against Myo3, P36006 (assay: SPOT array). Conditions: median of control spots 468.

| Binder | SPOT intensity |
| --- | --- |
| PPLPRAPPVPPATFE | 269 |
| VNIPSPSSSPPPIPK | 464 |
| PPPPPPPPPPLPQSL | 275 |

These binders were tested against T16, Myo5, Q04439 (assay: SPOT array). Conditions: median of control spots 471.
T16 sequence (Q04439 1072-1160, looked up): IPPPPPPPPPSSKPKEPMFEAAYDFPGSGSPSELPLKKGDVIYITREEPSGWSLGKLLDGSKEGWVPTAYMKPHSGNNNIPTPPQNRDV

| Binder | SPOT intensity |
| --- | --- |
| PPLPRAPPVPPATFE | 137 |
| VNIPSPSSSPPPIPK | 529 |
| PPPPPPPPPPLPQSL | 263 |

What follows are binders tested against T17, Nbp2, Q12163 (assay: SPOT array). Conditions: median of control spots 357.
T17 sequence (Q12163 103-180, looked up): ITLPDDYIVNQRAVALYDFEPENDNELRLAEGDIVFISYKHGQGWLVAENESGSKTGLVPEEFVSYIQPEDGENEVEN

| Binder | SPOT intensity |
| --- | --- |
| PPLPRAPPVPPATFE | 2 |
| VNIPSPSSSPPPIPK | 2 |
| PPPPPPPPPPLPQSL | 0 |

What follows are binders tested against T18, Pex13, P80667 (assay: SPOT array). Conditions: median of control spots 1341.
T18 sequence (P80667 295-386, looked up): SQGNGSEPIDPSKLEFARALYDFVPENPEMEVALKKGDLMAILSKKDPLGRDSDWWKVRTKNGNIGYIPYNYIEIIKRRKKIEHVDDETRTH

| Binder | SPOT intensity |
| --- | --- |
| PPLPRAPPVPPATFE | 14 |
| VNIPSPSSSPPPIPK | 0 |
| PPPPPPPPPPLPQSL | 28 |

Each binder was assayed against T19, Pin3, Q06449 (assay: SPOT array). Conditions: median of control spots 2171.
T19 sequence (Q06449 53-122, looked up): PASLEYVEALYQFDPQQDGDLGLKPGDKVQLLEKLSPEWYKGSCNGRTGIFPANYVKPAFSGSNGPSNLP

| Binder | SPOT intensity |
| --- | --- |
| PPLPRAPPVPPATFE | 0 |
| VNIPSPSSSPPPIPK | 0 |
| PPPPPPPPPPLPQSL | 0 |

These binders were tested against Rvs167, P39743 (assay: SPOT array). Conditions: median of control spots 2707.
Sequence of Rvs167, P39743 (P39743 419-482): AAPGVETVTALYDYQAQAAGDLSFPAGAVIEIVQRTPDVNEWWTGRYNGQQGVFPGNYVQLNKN

| Binder | SPOT intensity |
| --- | --- |
| PPLPRAPPVPPATFE | 0 |
| VNIPSPSSSPPPIPK | 0 |
| PPPPPPPPPPLPQSL | 0 |

The binders below were run against Sho1, P40073 (assay: SPOT array). Conditions: median of control spots 1148.
Sequence of Sho1, P40073 (P40073 287-367): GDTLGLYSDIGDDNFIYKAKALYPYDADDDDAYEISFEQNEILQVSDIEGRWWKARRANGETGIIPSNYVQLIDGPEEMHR

| Binder | SPOT intensity |
| --- | --- |
| PPLPRAPPVPPATFE | 9 |
| VNIPSPSSSPPPIPK | 0 |
| PPPPPPPPPPLPQSL | 0 |

These binders were tested against T20, Sla1-2, P32790 (assay: SPOT array). Conditions: median of control spots 712.
T20 sequence (P32790 60-140, looked up): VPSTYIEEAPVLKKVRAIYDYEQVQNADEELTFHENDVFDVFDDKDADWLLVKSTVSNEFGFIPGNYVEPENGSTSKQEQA

| Binder | SPOT intensity |
| --- | --- |
| PPLPRAPPVPPATFE | 1 |
| VNIPSPSSSPPPIPK | 0 |
| PPPPPPPPPPLPQSL | 0 |

These binders were tested against T21, Sla1-3, P32790 (assay: SPOT array). Conditions: median of control spots 5475.
T21 sequence (P32790 344-424, looked up): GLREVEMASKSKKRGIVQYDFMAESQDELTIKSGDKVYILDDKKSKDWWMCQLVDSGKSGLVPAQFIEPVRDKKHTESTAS

| Binder | SPOT intensity |
| --- | --- |
| PPLPRAPPVPPATFE | 1 |
| VNIPSPSSSPPPIPK | 3 |
| PPPPPPPPPPLPQSL | 6 |
